Consider one molecule from US20240182596A1 (TUBULIS, published 2024).

Assay [1] concerns the target T1, human NaPi2b on NaPi2b-positive cell lines OVCAR-3 and HCC-78 (human, UniProt O95436 1-690).
T1 construct: Endogenous protein
T1 sequence: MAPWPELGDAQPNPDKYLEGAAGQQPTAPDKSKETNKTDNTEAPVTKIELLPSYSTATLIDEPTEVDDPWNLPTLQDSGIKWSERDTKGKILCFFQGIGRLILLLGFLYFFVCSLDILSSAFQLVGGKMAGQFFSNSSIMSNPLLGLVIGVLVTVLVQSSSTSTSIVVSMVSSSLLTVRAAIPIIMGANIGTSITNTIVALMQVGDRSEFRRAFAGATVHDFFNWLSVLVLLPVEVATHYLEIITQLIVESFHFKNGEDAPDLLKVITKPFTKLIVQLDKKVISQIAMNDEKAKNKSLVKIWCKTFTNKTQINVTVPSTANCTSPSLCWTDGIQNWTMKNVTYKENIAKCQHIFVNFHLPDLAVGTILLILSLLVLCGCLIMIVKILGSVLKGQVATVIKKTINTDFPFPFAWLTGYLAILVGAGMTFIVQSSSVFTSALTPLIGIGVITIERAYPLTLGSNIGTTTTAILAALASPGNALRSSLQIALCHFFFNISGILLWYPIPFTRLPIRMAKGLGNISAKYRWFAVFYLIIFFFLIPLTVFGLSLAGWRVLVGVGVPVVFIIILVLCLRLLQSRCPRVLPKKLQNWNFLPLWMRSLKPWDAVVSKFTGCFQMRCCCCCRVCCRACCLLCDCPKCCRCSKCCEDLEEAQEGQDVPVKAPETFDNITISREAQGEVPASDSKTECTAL
The assay can be described thus: flow cytometry on NaPi2b-positive HCC-78 cells, Alexa-dye-labeled anti-human IgG H+L secondary antibody, MFI ratio normalized to the non-specific binding control.
Experimental: (§1) To determine concentration-dependent binding, NaPi2b-positive OVCAR-3 and HCC-78 were incubated with antibodies in concentrations ranging from 0.00075 to 30 μg/ml, stained with an Alexa-dye-labeled anti-human IgG H+L secondary antibody (Thermo Fisher Scientific), and analyzed by flow cytometry. Mean fluorescence intensity (MFI) ratios were normalized to the non-specific binding control. The assay was performed in duplicates and data points were analyzed by a non-linear regression using a one-site specific binding model using Prism 9 software.

Assay [2] has as its target T2, human Napi2b-mCherry on HEK293 cells (human, UniProt O95436 1-690).
T2 construct: also called Napi2b (SLC34A2); HEK293 cells overexpressing Napi2b
T2 sequence: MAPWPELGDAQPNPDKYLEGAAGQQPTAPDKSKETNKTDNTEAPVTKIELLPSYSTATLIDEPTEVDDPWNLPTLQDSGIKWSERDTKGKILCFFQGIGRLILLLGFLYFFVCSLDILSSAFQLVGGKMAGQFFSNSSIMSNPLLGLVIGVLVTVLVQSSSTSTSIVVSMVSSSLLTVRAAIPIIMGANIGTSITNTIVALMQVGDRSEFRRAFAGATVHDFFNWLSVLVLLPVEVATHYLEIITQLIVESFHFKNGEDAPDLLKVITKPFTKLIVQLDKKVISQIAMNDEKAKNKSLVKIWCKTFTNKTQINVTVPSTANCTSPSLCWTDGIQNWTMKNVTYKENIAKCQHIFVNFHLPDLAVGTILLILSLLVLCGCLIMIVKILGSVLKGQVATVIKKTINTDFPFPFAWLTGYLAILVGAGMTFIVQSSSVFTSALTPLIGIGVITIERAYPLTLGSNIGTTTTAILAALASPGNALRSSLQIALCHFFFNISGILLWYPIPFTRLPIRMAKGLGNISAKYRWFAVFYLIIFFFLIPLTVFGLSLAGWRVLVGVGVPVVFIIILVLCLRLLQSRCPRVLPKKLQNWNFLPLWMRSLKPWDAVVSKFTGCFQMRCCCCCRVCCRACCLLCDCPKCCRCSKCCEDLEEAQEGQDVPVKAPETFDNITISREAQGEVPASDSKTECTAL
The assay can be described thus: flow cytometry on HEK293 cells stably expressing human full-length NaPi2b-mCherry, Alexa-dye anti-human IgG H+L secondary antibody, MFI ratio, one-site specific binding fit; the Kd table prints no unit, the concentration axis is in nM.
Text: (§2) HEK293 cells stably overexpressing human and rat Napi2b were generated by stable integration of a human or rat full-length Napi2b-mCherry-(GGGS)3x-mCherry expression construct under control of a human EF1 promoter and a Puromycin-selection cassette under a CMV promoter into the parental HEK293 cell line. In brief, cells were transfected with the linearized plasmids using Lipfectamine 2000 (Thermo Fisher) and selected with Puromycin antibiotic. Cells were then single cell cloned in 96-well plates via serial dilution under continuous antibiotic selection. Clones were screened for target expression via flow cytometry and mCherry fluorescence via flow cytometry and fluorescence microscopy. Target- and mCherry-positive clones were expanded and used for further experiments. […] Binding of antibodies was investigated on mCherry-positive cells. Mean fluorescence intensity (MFI) ratios were normalized to the secondary antibody control. The assay was performed in duplicates and data points were analyzed by a non-linear regression using a one-site specific binding model to derive KD values using Prism 9 software.

The target of assay [3] is T3, FcγRIIa (CD32) (H131) (Fused to the SmBiT luciferase fragment (Promega Lumit reagent), not carried in the letters).
T3 construct: m20 joins both polymorphic variants; also called H131 variant of m20; not shown: SmBiT tag (and any linker or purification tag) of Promega's FcγR-SmBiT fusion
T3 chain: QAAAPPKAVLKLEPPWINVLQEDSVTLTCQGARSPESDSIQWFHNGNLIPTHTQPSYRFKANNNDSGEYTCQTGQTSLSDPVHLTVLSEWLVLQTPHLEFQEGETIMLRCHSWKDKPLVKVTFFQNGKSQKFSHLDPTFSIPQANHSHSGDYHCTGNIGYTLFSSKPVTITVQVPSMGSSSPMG
The assay can be described thus: Lumit FcγRIIa (H131) Binding Immunoassay (Promega), left panel FcγRIIa (CD32) (H131), competition with Tracer-LgBiT for FcγR-SmBiT, n=1.

In assay [4] the target is T1, human NaPi2b on NaPi2b-positive cell …. In words: flow cytometry on OVCAR-3 cells; table column Binding KD (nmol/L), FACS (OVCAR-3). For orientation: Flow cytometry measures light scatter and fluorescence of single cells or particles in a stream.
The target is the same in assay [5]. In words: flow cytometry on NaPi2b-positive OVCAR-3 cells, Alexa-dye-labeled anti-human IgG H+L secondary antibody, MFI ratio normalized to the non-specific binding control.
Experimental: as §1
The target of assay [6] is T4, HEK293 rat-NaPi2B-mCherry (Rattus norvegicus, UniProt Q9JJ09).
T4 construct: full-length mCherry fusion stably expressed on HEK293 cells; also called rat full-length NaPi2b-mCherry on HEK293 cells
T4 sequence (target on cells, looked up): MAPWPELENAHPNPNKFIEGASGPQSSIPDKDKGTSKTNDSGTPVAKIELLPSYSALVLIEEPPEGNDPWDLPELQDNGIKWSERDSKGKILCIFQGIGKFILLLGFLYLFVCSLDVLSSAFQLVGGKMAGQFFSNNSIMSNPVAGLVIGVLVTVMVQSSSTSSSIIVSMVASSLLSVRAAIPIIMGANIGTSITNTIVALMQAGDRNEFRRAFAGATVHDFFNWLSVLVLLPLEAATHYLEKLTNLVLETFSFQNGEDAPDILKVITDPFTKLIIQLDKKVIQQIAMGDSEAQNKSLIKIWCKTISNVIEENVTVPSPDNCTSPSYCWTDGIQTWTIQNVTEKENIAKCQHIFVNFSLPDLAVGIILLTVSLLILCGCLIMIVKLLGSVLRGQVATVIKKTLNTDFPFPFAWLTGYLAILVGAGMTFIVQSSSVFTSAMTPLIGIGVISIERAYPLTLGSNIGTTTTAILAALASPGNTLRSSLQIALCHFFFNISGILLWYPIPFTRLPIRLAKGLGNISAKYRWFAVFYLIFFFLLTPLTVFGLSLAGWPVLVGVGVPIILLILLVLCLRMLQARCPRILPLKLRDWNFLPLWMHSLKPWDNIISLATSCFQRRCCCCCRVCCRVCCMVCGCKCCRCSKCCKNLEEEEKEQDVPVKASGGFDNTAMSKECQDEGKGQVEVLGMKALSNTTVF
The assay can be described thus: flow cytometry on HEK293 cells stably expressing rat full-length NaPi2b-mCherry, Alexa-dye anti-human IgG H+L secondary antibody, MFI ratio, one-site specific binding fit; the Kd table prints no unit, the concentration axis is in nM.
Text: as §2

For assay [7], the target named is T5, purified recombinant human Napi2b antigen consisting of Napi2b-extracellular-loop2 expressed as … (human, UniProt O95436 234-362, limits assumed).
T5 construct: Expressed in Expi-HEK293 cells; also called immobilized human NaPi2B; not shown: Fc part; 6-His tag
T5 sequence: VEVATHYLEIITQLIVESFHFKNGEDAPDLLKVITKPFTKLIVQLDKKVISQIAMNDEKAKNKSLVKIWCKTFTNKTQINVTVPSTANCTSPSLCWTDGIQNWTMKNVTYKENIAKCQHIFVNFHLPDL
In words: ELISA on the isolated immobilized protein; table column Binding KD (nmol/L), ELISA. A general note: In an ELISA, binding on a coated surface is turned into a signal by an enzyme label.

Assay [8] has as its target T1, human NaPi2b on NaPi2b-positive cell …. The assay can be described thus: flow cytometry on OVCAR-3 cells, one-site fit.
Experimental: as §1

Broadly, the EC50 (read off the curve) is the concentration at which the effect is half-maximal. The Kd is the equilibrium constant for the complex coming apart.

B1: AV25 mAb, LALA-silenced (AV25 HC-LALA) (antibody, human IgG1, kappa, L234A L235A)
heavy: not shown
light: DIQMTQSPSSLSASVGDRVTITCSASQDIGNFLNWYQQKPGKTVKVLIYYASSLYSGVPSRFSGSGSGTDYTLTISSLQPEDFATYYCQQYSKLPLTFGQGTKLELKRTVAAPSVFIFPPSDEQLKSGTASVVCLLNNFYPREAKVQWKVDNALQSGNSQESVTEQDSKDSTYSLSSTLTLSKADYEKHKVYACEVTHQGLSSPVTKSFNRGEC
notes: also called unmodified AV25 mAb
Regarding B1, the entries for the “EC50 (read off the curve)” value in assay [1] and in assay [5] were around 0.4 µg/mL and around 0.5 µg/mL, respectively. For the same molecule, the Kd in assay [2] is 1.52 nM; in assay [4], 2.7 nM; in assay [6], 0.539 nM; in assay [7] it was 0.071 nM; in assay [8], 0.44 µg/mL. Moreover, in assay [3], the binding result is recorded as “no binding”.
